Test results published in patent US20190241895.

Test system: secretory immunoglobulin A (sIgA) (Homo sapiens)
Experiment: SPR
[1] = KS9 (adenine-residue-modified T) at the T after GCAATCTCCCTAATC, 3' poly(dA)20 added for SPR, SPR buffer 1 mM MgCl2 pH 7.4
[2] = NG7 (guanine-residue-modified T) at underlined T i.e. T after GCAATCTCCCTAATC, 3' poly(dA)20 added for SPR, SPR buffer 1 mM MgCl2 pH 7.4
[3] = KS9 (adenine-residue-modified T) at T after the 5' primer region GGTTTGGACGCAATCTCCCTAATC, 3' poly(dA)20 added for SPR, SPR buffer 1 mM MgCl2 pH 7.4
[4] = MK4 (adenine-residue-modified dA) at A after the 5' primer region GGTTTGGACGCAATCTCCCTAATC, 3' poly(dT)20 added for SPR, SPR buffer 1 mM MgCl2 pH 7.4
[5] = NG7 (guanine-residue-modified T) at T after the 5' primer region GGTTTGGACGCAATCTCCCTAATC, 3' poly(dA)20 added for SPR, SPR buffer 1 mM MgCl2 pH 7.4

“GCAATCTCCCTAATCAAAGATATGCTAAGATAGATAGTTTGGCTTG [KS9 aptamer SEQ 19]” was tested. Which Kd [1] did it give?
The Kd was 8 nM.

Which Kd [1] does the source give for “GCAATCTCCCTAATCGTATATCAAGCAGATGTGTTCACTTGGGGAG [KS9 aptamer SEQ 17]” here?
Its Kd is 12.9 nM.

Which Kd [2] does the source give for “GCAATCTCCCTAATCTGCTGATGTTTGTATTTCAAATTAGC [NG7 aptamer SEQ 15]” here?
The Kd was 2.59 nM.

Which Kd [2] does the source give for “GCAATCTCCCTAATCTGCTGATGTTTGTATTTCAAATTAGCCGCAG [NG7 aptamer SEQ 14]” here?
The Kd was 10 nM.

How did the Kd [1] turn out when “GCAATCTCCCTAATCTTTATACGTATGGACTTAGGCTTTGTTATAGAAAC [KS9 aptamer SEQ 21]” was run?
The Kd was 2.1 nM.

How did the Kd [3] turn out when “GGTTTGGACGCAATCTCCCTAATCAAAGATATGCTAAGATAGATAGTTTGGCTTGAAACTACAATGGGCGGGCTTATC [KS9 aptamer SEQ 9]” was run?
The Kd was 4.8 nM.

How did the Kd [4] turn out when “GGTTTGGACGCAATCTCCCTAATCAAGCCACGGAGAGTCCGAGGTGACCATTAAGCAGGAAACTACAATGGGCGGGCTTA [MK4 aptamer SEQ 3]” was run?
Its Kd is 7.6 nM.

With “GGTTTGGACGCAATCTCCCTAATCACCTGTACTGGTTATTATGCCTGCCAACATGAAACTACAATGGGCGGGCTTATC [KS9 aptamer SEQ 10]” as the sequence, how does the Kd [3] read?
Its Kd is 30.2 nM.

“GGTTTGGACGCAATCTCCCTAATCAGACAATATTAGAGTGTTACCACCTGTGATGAAACTACAATGGGCGGGCTTATC [NG7 aptamer SEQ 7]” was tested. Which Kd [5] did it give?
The Kd was 37.7 nM.

How did the Kd [4] turn out when “GGTTTGGACGCAATCTCCCTAATCAGATGATATCGAGATGCGAAGCGACCGCATGAAACTACAATGGGCGGGCTTATC [MK4 aptamer SEQ 2]” was run?
The Kd was 7.6 nM.

“GGTTTGGACGCAATCTCCCTAATCCTATCTGTTTTATCAATTGTAGCAAGTTATGAAACTACAATGGGCGGGCTTATC [KS9 aptamer SEQ 12]” was tested. Which Kd [3] did it give?
Its Kd is 9 nM.

For “GGTTTGGACGCAATCTCCCTAATCGATCTAGATGGTCTCGGGTATGGCTAGATAGAAACTACAATGGGCGGGCTTATC [MK4 aptamer SEQ 4]”, which Kd [4] is on record?
The Kd was 17.4 nM.

How did the Kd [3] turn out when “GGTTTGGACGCAATCTCCCTAATCGTATATCAAGCAGATGTGTTCACTTGGGGAGAAACTACAATGGGCGGGCTTATC [KS9 aptamer SEQ 8]” was run?
The Kd was 10 nM.

With “GGTTTGGACGCAATCTCCCTAATCTAAATAGATTTCACAGTGGATCCTTCAGAGGAAACTACAATGGGCGGGCTTATC [NG7 aptamer SEQ 6]” as the sequence, how does the Kd [5] read?
The Kd was 11.6 nM.

With “GGTTTGGACGCAATCTCCCTAATCTACTACGATATCCAGATGGGAAGTGACCGTGAAACTACAATGGGCGGGCTTATC [MK4 aptamer SEQ 1]” as the sequence, how does the Kd (MK4 (adenine-residue-modified dA) at A after the 5' primer region GGTTTGGACGCAATCTCCCTAATC, 3' poly(dT)20 added for SPR, 40 mM HEPES, 125 mM NaCl, 5 mM KCl, 1 mM MgCl2, 0.01% Tween 20, pH 7.4) read?
Its Kd is 8.6 nM.

Which Kd [5] does the source give for “GGTTTGGACGCAATCTCCCTAATCTGCTGATGTTTGTATTTCAAATTAGCCGCAGAAACTACAATGGGCGGGCTTATC [NG7 aptamer SEQ 5]” here?
Its Kd is 11.8 nM.

Which Kd [3] does the source give for “GGTTTGGACGCAATCTCCCTAATCTTTATACGTATGGACTTAGGCTTTGTTATAGAAACTACAATGGGCGGGCTTATC [KS9 aptamer SEQ 11]” here?
Its Kd is 1.3 nM.
